Experimental data as given in the supplement of paper PMC9732359.
± gives the uncertainty stated by the source.

Assay: protein stability index of a GFP-peptide fusion (yeast GPS) (PSI 1-4); higher = more stable; sorted into four equal gates, so the index is relative within each strain
Conditions: doa10∆
Procedure, shortened: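 The protein stability index combines read frequencies across sorting gates, each weighted by its gate number and then summed. To obtain those frequencies, a pooled yeast library of GFP fusions to tiled 17-residue yeast protein peptides, on a plasmid also expressing Cherry, was grown to mid-log phase in leucine-free medium. The cells were sorted into four equal gates by GFP/Cherry ratio before plasmid amplification by PCR and Illumina sequencing.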

Row | Sequence | protein stability index
1 | QIVKYARKGLTPSQIGV [RPS13] | 3.12 ± 0.068

Same assay, conditions: pdr5∆

Row | Sequence | protein stability index
2 | PLKTQTKNGTPNPNNMK [GAL11] | 2.94 ± 0.084
3 | PLLAQLFKTLFKKLTKD [RPB2] | 1.29 ± 0.039
4 | PLLEAKKLVWPLHLIFA [SSN2] | 1.29 ± 0.059
5 | PLLSKKERLVRDKKEKK [SMB1] | 3 ± 0.11
6 | PLSAGFNYGKLPLPPSV [SIN4] | 2.9 ± 0.068
7 | PLSGLLFKNYRFNFISK [YMR129W/POM152] | 2.17 ± 0.07
8 | PLSNIKALLFFNNEKET [RPN12] | 1.4 ± 0.062
9 | PLSVATELMNRSPLVTP [SRP72] | 2.48 ± 0.069
10 | PLVQADLYEQIGIDPPR [RPT3] | 2.83 ± 0.1
11 | PMDEETKLYFDVNEKIR [RPC25] | 3.03 ± 0.086
12 | PMIKAEETPSKTNKISI [NUT1] | 2.8 ± 0.049
13 | PMNAPTPAMIPYPGSPM [DSN1] | 2.76 ± 0.05
14 | PNCLFILKLLNGFMESA [SOH1] | 1.54 ± 0.12
15 | PNGHISTKKIQVATKYA [YMR129W/POM152] | 2.24 ± 0.05
16 | PNGSGKSNVIDSMLFVF [SMC4] | 2.87 ± 0.051
17 | PNLATFISSGTSLLDSL [YJL039C/NUP192] | 2.6 ± 0.046
18 | PNTKDAMSLYHSPFPFN [PRP8] | 2.55 ± 0.053
19 | PNYLHLVSSYLNKSDLL [YML103C/NUP188] | 2.27 ± 0.034
20 | PPDIHPNLGPQLWLNSS [GRR1] | 3.36 ± 0.089
21 | PPEVTSSNCHVRQKIKT [POP1] | 3.1 ± 0.072
22 | PPKEGNYEIVFDTVSNK [YMR129W/POM152] | 3.13 ± 0.095
23 | PPLTSQYSTRHDAPRGL [SWI3] | 3.19 ± 0.06
24 | PPNNARRTYNTLEDKFL [ISW2] | 2.02 ± 0.045
25 | PPQDAEGWFYKRAASVA [RPS19A] | 1.42 ± 0.11
26 | PQEESVSPNISSASPSA [SIR3] | 3.15 ± 0.046
27 | PQIAQLPLATQQQVLNK [SNF5] | 2.3 ± 0.075
28 | PQIVKLFDISREALSGR [ECM29] | 3.26 ± 0.1

Row | Sequence | protein stability index
29 | PQKNLLLKGPASTVAKT [YOR098C/NUP1] | 2.94 ± 0.041
30 | PQLTFTHVANFMNDAAA [YML103C/NUP188] | 3 ± 0.082
31 | PQNGNINNNINIPQQQQ [GAL11] | 3.02 ± 0.12
32 | PQNMLFEGCYYTPEESA [RPC25] | 2.42 ± 0.21
33 | PQQSRYISFIKDDRFVP [RPN2] | 2.87 ± 0.036
34 | PQRCTFAFEAIDPRHLA [POP1] | 3.01 ± 0.077
35 | PQVKIREASKDNVDFIL [RPB3] | 2.12 ± 0.033
36 | PRGLRSLTTVWAEHLSD [RPL3] | 2.83 ± 0.17
37 | PRLDAQAIKEASYVNIP [RPS0B] | 2.84 ± 0.039
38 | PRLDDVVVDTVECAQHC [SMC4] | 3.31 ± 0.13
39 | PRLDTSKEFSAYVSGLF [YJR042W/NUP85] | 2.08 ± 0.082
40 | PRLLGPQLSKAGKFPTP [RPL1A] | 2.8 ± 0.057
41 | PRMVRDVFRLARENAPS [RPT3] | 2.88 ± 0.059
42 | PRYFSEAINGFKDETIS [SIR3] | 2.87 ± 0.054
43 | PRYHSKNSFQQALQMKA [SWP82] | 1.82 ± 0.049
44 | PSEDVAALKKTRKAARP [RPL6A] | 3.02 ± 0.048
45 | PSELNQLKMVNERELNV [RPC82] | 2.94 ± 0.15
46 | PSESEHPIRVLMASVIL [YDL116W/NUP84] | 1.89 ± 0.064
47 | PSFVKSGKLRDYQVQGL [ISW2] | 3.39 ± 0.071
48 | PSKTPEVYMRYRNFMVN [SWI3] | 1.81 ± 0.072
49 | PSLNNKISDDELERILK [RPB4] | 2.9 ± 0.098
50 | PSNESCSPWSLQISDIP [SRB5] | 2.78 ± 0.047
51 | PSSSDSNGPRAAKKRRP [RRP6] | 3.29 ± 0.085
52 | PSVIHSSVEMLLDVVKG [YDL116W/NUP84] | 1.85 ± 0.11
53 | PSYSPTSPGYSPGSPAY [RPO21] | 2.27 ± 0.053
54 | PSYVHFKVQIIELLSYL [YML103C/NUP188] | 2.27 ± 0.065
55 | PTAKDVEVIKQLSLDAS [GAL11] | 2 ± 0.07

Row | Sequence | protein stability index
56 | PTDQNNQSNLNGGNNTQ [SNF2] | 3.03 ± 0.072
57 | PTIEEDLTRVYKAISAQ [FAS2] | 2.21 ± 0.041
58 | PTRIRTKSSKEFFNTLR [RRI2] | 3.01 ± 0.15
59 | PTVNRVPNYEVSEKAFL [RPN7] | 1.68 ± 0.1
60 | PVEKVQRIAKNDPEYMD [DLS1] | 3.29 ± 0.14
61 | PVKQSFIRKYINQKALR [GAL11] | 1.59 ± 0.07
62 | PVMADLNGGLQFVPELK [FAS2] | 2.19 ± 0.076
63 | PVTIWLFEQIGIRIKGK [SME1] | 2.28 ± 0.053
64 | PVTSIPSTNKKLSISNA [GAL11] | 2.67 ± 0.056
65 | PWDTSLEVGRRFSPDED [MCD1] | 3.44 ± 0.19
66 | QAAAKPSLEKSSFTFGS [YLR335W/NUP2] | 2.97 ± 0.1
67 | QAESMKFKLLNGLAIRR [RPS3] | 2.3 ± 0.085
68 | QALDAVRMRLAQLTHSL [MED8] | 1.58 ± 0.047
69 | QARDNSQVFGVARIYAS [RPS14A] | 2.12 ± 0.057
70 | QASGITAGAAANALGGL [SSN3] | 1.91 ± 0.068
71 | QAVNNLIKTLSTLHMLG [RPP1] | 2.45 ± 0.058
72 | QAYFSRLELPVDFQNDL [BRR2] | 2.1 ± 0.064
73 | QCNYSSLVFNRKLAVER [PRE5] | 1.5 ± 0.18
74 | QDDIDEMVENSSENNQI [SRP68] | 3.25 ± 0.11
75 | QDEVNKGPAIDELSSKE [NNF1] | 3.36 ± 0.081
76 | QDKMFVSNPIRKVFKPS [FAS1] | 2.62 ± 0.054
77 | QDMEAAKEVYKIHQQLL [GAL11] | 3.41 ± 0.13
78 | QDMQLKIWSVKDGSNPR [RPN14] | 2.86 ± 0.088
79 | QDPIFGSVLLTLLNFVS [ECM29] | 1.42 ± 0.052
80 | QDSMSKGTGEESNDRIN [YGR119C/NUP57] | 3.22 ± 0.15
81 | QDSNVMPGSQINSPMPQ [SNF2] | 3.12 ± 0.11
82 | QDVLKGSSASSRKAHGL [POP1] | 3.06 ± 0.064

Row | Sequence | protein stability index
83 | QDVQRTCILHGPVAAQF [FAS1] | 2.54 ± 0.057
84 | QEEGSFEFGNMKATSNT [FAS2] | 3.38 ± 0.07
85 | QEFDSELSKEEKERLES [SMC3] | 2.96 ± 0.16
86 | QEGIEAIATTVIAHLTV [RET1] | 1.93 ± 0.05
87 | QEITTNLENHFKKSKID [SCL1] | 3.15 ± 0.08
88 | QELGFCELLKLTNEDPP [SSN2] | 3.12 ± 0.069
89 | QERNKIHQYLFQEGVVV [RPS10B] | 1.39 ± 0.044
90 | QFCAFDSSSNTYRSRAQ [SIN4] | 2.37 ± 0.08
91 | QFIYAGKKASLNVGNVL [RPL2A] | 2.81 ± 0.11
92 | QFSLPNGDNSTTTNTDQ [SNF12] | 2.2 ± 0.055
93 | QGATNEGYQNDINTIKL [SRP72] | 3.15 ± 0.17
94 | QGISGSQQNIVPNSSDQ [SNF2] | 3.11 ± 0.06
95 | QGIVPDIIMNPHGFPSR [RET1] | 2.76 ± 0.057
96 | QGKPYISLPKGKGIKLS [RPS4A] | 3.33 ± 0.081
97 | QGSVRRLTVSARDAPTK [QCR2] | 3.16 ± 0.076
98 | QHLQFNGSSDASSLRFG [YDL088C/ASM4] | 2.3 ± 0.049
99 | QIANDPSKKRRRDFGAP [SMD1] | 3.18 ± 0.1
100 | QIKGLQWMVSLFNNHLN [SNF2] | 1.74 ± 0.097
101 | QILSTVVEDKPLLSKKE [SMB1] | 1.19 ± 0.042
102 | QILSVAIPNGIHLQRFD [RPO21] | 2.33 ± 0.075
103 | QINQGVPSAKPLILTPP [SNF11] | 2.3 ± 0.052
104 | QIPHFNNKILEKCKEIN [BRR2] | 2.23 ± 0.12
105 | QIPTPNNTVDPGFDEFQ [CSI1] | 2.98 ± 0.045
106 | QIVDIRNKRAVQLPILK [YJL039C/NUP192] | 2.04 ± 0.053
